Laboratory results published in article PMC2945613 (Molecular cell, 2010).

T1: eIF4G1 (yeast eIF4G, wild type) (S. cerevisiae, UniProt P39935 1-952)
T1 sequence (looked up): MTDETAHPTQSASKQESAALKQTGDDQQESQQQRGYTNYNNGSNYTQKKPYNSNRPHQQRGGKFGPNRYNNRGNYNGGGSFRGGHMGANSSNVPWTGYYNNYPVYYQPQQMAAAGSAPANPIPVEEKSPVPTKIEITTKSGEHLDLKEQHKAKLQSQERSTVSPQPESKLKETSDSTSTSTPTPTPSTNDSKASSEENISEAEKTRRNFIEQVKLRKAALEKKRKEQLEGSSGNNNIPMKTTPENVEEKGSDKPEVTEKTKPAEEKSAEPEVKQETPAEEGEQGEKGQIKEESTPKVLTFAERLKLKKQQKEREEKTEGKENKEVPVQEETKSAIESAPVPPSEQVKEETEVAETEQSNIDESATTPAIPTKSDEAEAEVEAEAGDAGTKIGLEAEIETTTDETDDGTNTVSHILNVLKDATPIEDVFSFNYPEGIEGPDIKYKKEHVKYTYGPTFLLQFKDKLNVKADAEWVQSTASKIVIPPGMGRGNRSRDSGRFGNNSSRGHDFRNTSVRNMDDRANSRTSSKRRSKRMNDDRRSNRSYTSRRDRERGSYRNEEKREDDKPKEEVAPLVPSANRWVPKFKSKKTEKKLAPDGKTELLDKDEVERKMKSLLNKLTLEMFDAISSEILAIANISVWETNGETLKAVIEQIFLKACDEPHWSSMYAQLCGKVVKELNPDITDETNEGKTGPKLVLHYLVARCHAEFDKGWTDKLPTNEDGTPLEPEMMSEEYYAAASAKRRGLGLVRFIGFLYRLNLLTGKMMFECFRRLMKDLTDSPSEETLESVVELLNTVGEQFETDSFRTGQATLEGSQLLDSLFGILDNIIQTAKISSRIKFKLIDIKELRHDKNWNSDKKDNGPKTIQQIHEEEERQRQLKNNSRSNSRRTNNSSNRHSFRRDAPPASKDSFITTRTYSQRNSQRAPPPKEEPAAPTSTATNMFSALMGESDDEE

T2: eIF4E•eIF4G complex (S. cerevisiae, UniProt P07260 1-213; P39935 1-952)
T2 sequence (looked up) 1: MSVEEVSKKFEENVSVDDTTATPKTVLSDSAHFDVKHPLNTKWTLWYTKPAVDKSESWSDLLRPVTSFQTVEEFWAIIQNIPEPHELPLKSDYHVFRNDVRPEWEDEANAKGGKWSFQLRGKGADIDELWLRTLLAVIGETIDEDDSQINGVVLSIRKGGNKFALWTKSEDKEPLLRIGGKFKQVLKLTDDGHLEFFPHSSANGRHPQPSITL
T2 sequence (looked up) 2: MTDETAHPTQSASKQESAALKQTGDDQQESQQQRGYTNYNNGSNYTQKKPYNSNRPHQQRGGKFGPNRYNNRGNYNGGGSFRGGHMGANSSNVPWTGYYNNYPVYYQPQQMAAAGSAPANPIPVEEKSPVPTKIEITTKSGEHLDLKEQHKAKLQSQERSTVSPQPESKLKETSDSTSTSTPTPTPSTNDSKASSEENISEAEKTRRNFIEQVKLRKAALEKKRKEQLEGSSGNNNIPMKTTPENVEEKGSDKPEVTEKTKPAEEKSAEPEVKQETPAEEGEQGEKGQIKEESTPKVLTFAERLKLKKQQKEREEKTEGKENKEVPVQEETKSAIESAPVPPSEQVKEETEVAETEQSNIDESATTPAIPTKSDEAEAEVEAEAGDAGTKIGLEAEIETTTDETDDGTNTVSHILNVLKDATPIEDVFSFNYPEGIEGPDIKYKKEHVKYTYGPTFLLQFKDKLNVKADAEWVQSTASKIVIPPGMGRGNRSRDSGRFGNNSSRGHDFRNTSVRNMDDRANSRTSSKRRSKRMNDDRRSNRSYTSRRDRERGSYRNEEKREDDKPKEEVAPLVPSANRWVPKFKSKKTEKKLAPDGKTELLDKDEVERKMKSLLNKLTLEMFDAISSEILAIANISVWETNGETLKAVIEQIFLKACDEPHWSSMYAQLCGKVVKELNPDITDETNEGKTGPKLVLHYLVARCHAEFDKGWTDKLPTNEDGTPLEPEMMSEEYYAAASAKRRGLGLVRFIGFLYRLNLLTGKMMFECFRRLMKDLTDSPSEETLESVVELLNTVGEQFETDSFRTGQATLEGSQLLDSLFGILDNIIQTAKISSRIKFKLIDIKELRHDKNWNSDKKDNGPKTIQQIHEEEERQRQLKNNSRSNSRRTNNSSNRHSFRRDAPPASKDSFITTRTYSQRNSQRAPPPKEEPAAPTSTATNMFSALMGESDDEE


Assays:
Assay in all cases: fluorescence polarisation
[1] = molecular target: eIF1-TAMRA (S. cerevisiae) (UniProt P32911)
eIF4B-Fl (S. cerevisiae) = eIF4B-Fl (S. cerevisiae) (UniProt P34167)
[2] = molecular target: eIF5-TAMRA (S. cerevisiae) (UniProt P38431)
[3] = molecular target: T1, eIF4G1 (yeast eIF4G, wild type)
eIF4E•eIF4G complex = molecular target: T2, eIF4E•eIF4G complex

eIF1-TAMRA (S. cerevisiae), sequence (P32911 whole entry): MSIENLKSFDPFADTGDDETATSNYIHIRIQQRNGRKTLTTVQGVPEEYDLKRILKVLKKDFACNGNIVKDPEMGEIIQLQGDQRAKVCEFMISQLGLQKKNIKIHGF
eIF5-TAMRA (S. cerevisiae), sequence (P38431 whole entry): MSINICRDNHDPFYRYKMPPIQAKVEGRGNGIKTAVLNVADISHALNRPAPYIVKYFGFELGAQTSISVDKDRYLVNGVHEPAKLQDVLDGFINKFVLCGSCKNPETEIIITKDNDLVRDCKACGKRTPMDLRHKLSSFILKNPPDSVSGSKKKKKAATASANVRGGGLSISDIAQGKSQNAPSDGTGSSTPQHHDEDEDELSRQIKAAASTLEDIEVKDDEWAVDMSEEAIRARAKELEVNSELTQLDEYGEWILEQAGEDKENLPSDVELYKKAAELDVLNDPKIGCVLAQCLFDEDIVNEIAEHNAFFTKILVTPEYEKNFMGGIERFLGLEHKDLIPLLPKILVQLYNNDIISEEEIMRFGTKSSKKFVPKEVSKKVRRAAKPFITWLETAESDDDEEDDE

Kd [1] [nM]	Kd (eIF4B-Fl (S. cerevisiae)) [nM]	Kd [2] [nM]	Kd [3] [nM]	binding result (eIF4E•eIF4G complex)	Molecule
115	380	15			eIF3 (yeast multisubunit complex)
			< 15		eIF4E-Fl (yeast eIF4E S200C labelled with fluorescein maleimide) (natural protein, S. cerevisiae, UniProt P07260 1-213, looked up, fluorescein maleimide on the introduced cysteine (S200C)) MSVEEVSKKFEENVSVDDTTATPKTVLSDSAHFDVKHPLNTKWTLWYTKPAVDKSESWSDLLRPVTSFQTVEEFWAIIQNIPEPHELPLKSDYHVFRNDVRPEWEDEANAKGGKWSFQLRGKGADIDELWLRTLLAVIGETIDEDDSQINGVVLSIRKGGNKFALWTKSEDKEPLLRIGGKFKQVLKLTDDGHLEFFPHCSANGRHPQPSITL
			200	binds	eIF4A-TAMRA (enzyme, S. cerevisiae, UniProt P10081 1-395, looked up, TAMRA label, attached by expressed protein ligation) MSEGITDIEESQIQTNYDKVVYKFDDMELDENLLRGVFGYGFEEPSAIQQRAIMPIIEGHDVLAQAQSGTGKTGTFSIAALQRIDTSVKAPQALMLAPTRELALQIQKVVMALAFHMDIKVHACIGGTSFVEDAEGLRDAQIVVGTPGRVFDNIQRRRFRTDKIKMFILDEADEMLSSGFKEQIYQIFTLLPPTTQVVLLSATMPNDVLEVTTKFMRNPVRILVKKDELTLEGIKQFYVNVEEEEYKYECLTDLYDSISVTQAVIFCNTRRKVEELTTKLRNDKFTVSAIYSDLPQQERDTIMKEFRSGSSRILISTDLLARGIDVQQVSLVINYDLPANKENYIHRIGRGGRFGRKGVAINFVTNEDVGAMRELEKFYSTQIEELPSDIATLLN
